Read-outs that look alike come from different tables or passages of the source.
Tests used:
[1] = molecular target: PfBDP1-BRD (residues 303–488 or 333–456), bromodomain of P. falciparum Bromodomain Protein 1, as used in ITC (P. falciparum) (UniProt Q8IJ72); assay: ITC; histone peptide (2.5–5.0 mM) in the syringe, PfBDP1-BRD (303–488 or 333–456; 100–200 μM) in the sample cell; 5°C; 20 mM sodium phosphate pH 7.5, 150 mM NaCl, 1 mM TCEP; 1:1 binding model, single set of identical sites
[2] = molecular target: PfBDP1-BRD (residues 303–488 or 333–456), bromodomain of P. falciparum Bromodomain Protein 1, as used in ITC (P. falciparum) (UniProt Q8IJ72); assay: as above; remark: listed apart in the source

## H4K5acK8acK12acK16ac histone peptide (1–24), tetra-acetylated histone H4
[1]
  Kd: 117 µM
[2]
  Kd: 173 µM
